Experiment [1] has as its target T1, human BCMA on BCMA expressing cell lines (human, UniProt Q02223 1-184).
T1 sequence: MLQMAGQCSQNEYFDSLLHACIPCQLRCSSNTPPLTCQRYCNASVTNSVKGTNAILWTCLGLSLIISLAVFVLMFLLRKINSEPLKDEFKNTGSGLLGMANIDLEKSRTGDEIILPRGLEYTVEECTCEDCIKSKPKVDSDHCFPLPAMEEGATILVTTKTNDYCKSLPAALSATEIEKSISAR
Put plainly: cell-based or functional assay.

Experiment [2] addresses T1, human BCMA on BCMA expressing cell lines. Put plainly: cell-based or functional assay. This is another data set of the same source.
Experiment [3] has as its target T2, human BCMA protein (human, UniProt Q02223 1-54, limits assumed).
T2 sequence: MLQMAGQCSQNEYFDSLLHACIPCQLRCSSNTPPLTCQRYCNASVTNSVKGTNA
Put plainly: affinity of purified protein to human BCMA protein, method not stated.

In experiment [4] the target is T1, human BCMA on BCMA expressing cell lines. Description: cell-based or functional assay. This is another data set of the same source.
The target in experiment [5] is T2, human BCMA protein. Description: affinity to human BCMA protein, method not stated.

Like-named read-outs stand apart in the source and are kept apart here.

B1: BH2T TriTAC (protein, part only; not given: anti-albumin and anti-CD3 domains, part only)
chain, part: EVQLVESGGGLVQPGRSLTLSCAASTNIFSISPMGWYRQAPGKQRELVAAIHGFSTLYADSVKGRFTISRDNAKNSIYLQMNSLRPEDTALYYCNKVPWGDYHPRNVYWGQGTQVTVSSHHHHHH
In experiment [1], B1 registered a TDCC Jeko1 EC50 of 320 pM, a TDCC MOLP-8 EC50 of 200 pM and a TDCC OPM-2 EC50 of 160 pM.

B2: 01F07-M34G TriTAC (other, not shown: large carriers; small tags and cut ends)
VHH: EVQLVESGGGLVQPGRSLTLSCAASTNIFSTSPGGWYRQAPGKQRELVAAIHGFSTIYADSVKGRFTISRDNAKNSIYLQMNSLRPEDTALYYCNKVPWGDYHPGNVYWGQGTQVTVSS
notes: trispecific; also called 01F01-M34G
On to B2, for which, in experiment [2], the “TDCC Jeko1 EC50” value came out at 9 pM, the “TDCC MOLP-8 EC50” value was determined as 2.2 pM and the “TDCC OPM-2 EC50” value stood at 5.6 pM. Further, the Kd (in general, the free concentration of one partner at which half of the binding sites on the other are occupied at equilibrium, for simple one-to-one binding) in the experiment with human BCMA protein [3] was found to be 6000 pM.

B3: BCMA targeting trispecific protein 02E06 (other, not shown: large carriers; small tags and cut ends)
VHH: EVQLVESGGGLVQPGRSLTLSCAASTNIFSDSPMGWYRQAPGKQRELVAAIHGFSTFYADSVKGRFTISRDNAKNSIYLQMNSLRPEDTALYYCNKVPWGDYHPGNVYWGQGTQVTVSS
notes: trispecific; also called 02E06 TriTAC
On to B3, for which the “TDCC EC50 (EJM cells)” value in experiment [4] was 1.57 pM. In addition, in experiment [2], the “TDCC Jeko1 EC50” value was determined as 9.1 pM, the “TDCC MOLP-8 EC50” value amounted to 2.4 pM and the “TDCC OPM-2 EC50” value amounted to 7.4 pM. This molecule displayed a Kd with human BCMA protein [5] of 6310 pM.

B4: BCMA targeting trispecific protein 01G08 (other, not shown: large carriers; small tags and cut ends)
VHH: EVQLVESGGGLVQPGRSLTLSCAASTNIQSISPMGWYRQAPGKQRELVAAIHGFETLYADSVKGRFTISRDNAKNSIYLQMNSLRPEDTALYYCNKVPWGDYHPGNVYWGQGTQVTVSS
notes: trispecific; also called 01G08 TriTAC
Turning to B4, the “TDCC EC50 (EJM cells)” value in experiment [4] turned out to be 1.91 pM. Moreover, in experiment [2], the “TDCC Jeko1 EC50” value stood at 15 pM, the “TDCC MOLP-8 EC50” value is 2.5 pM and the “TDCC OPM-2 EC50” value is 6.9 pM. In the experiment with human BCMA protein [5], this molecule came in with a Kd of 6270 pM.

B5: 02G02-M34Y TriTAC (other, not shown: large carriers; small tags and cut ends)
VHH: EVQLVESGGGLVQPGRSLTLSCAASTNIFSITPYGWYRQAPGKQRELVAAIHGASTLYADSVKGRFTISRDNAKNSIYLQMNSLRPEDTALYYCNKVPWGDYHPGNVYWGQGTQVTVSS
notes: trispecific
Turning to B5, in experiment [2], the “TDCC Jeko1 EC50” value was 11 pM, the “TDCC MOLP-8 EC50” value was 5.6 pM and the “TDCC OPM-2 EC50” value is 6.2 pM. The molecule further registered a Kd with human BCMA protein [3] of 5000 pM.

B6: BCMA targeting trispecific protein 02E05 (other)
VHH: EVQLVESGGGLVQPGRSLTLSCAASTNIFSRSPMGWYRQAPGKQRELVAAIHGISTLYADSVKGRFTISRDNAKNSIYLQMNSLRPEDTALYYCNKVPWGDYHPGNVYWGQGTQVTVSS
notes: trispecific; also called 02E05 TriTAC; not shown: the C-terminal 6xHis tag follows those domains and is left out
For the molecule B6, the “TDCC EC50 (EJM cells)” value in experiment [4] was determined as 1.37 pM. In experiment [2], the “TDCC Jeko1 EC50” value was 11 pM, the “TDCC MOLP-8 EC50” value was 3.3 pM and the “TDCC OPM-2 EC50” value worked out at 12 pM. For the same molecule, binding with human BCMA protein [5] was characterised by a dissociation constant (Kd) of 6530 pM.

B7: BCMA targeting trispecific protein 01H08 (other)
VHH: EVQLVESGGGLVQPGRSLTLSCAASTNIMSISPMGWYRQAPGKQRELVAAIHGFSTVYADSVKGRFTISRDNAKNSIYLQMNSLRPEDTALYYCNKVPWGDYHPGNVYWGQGTQVTVSS
notes: trispecific; also called 01H08 TriTAC; not shown: the C-terminal His6 follows those missing domains and is left out
On to B7, for which the “TDCC EC50 (EJM cells)” value in experiment [4] is 0.341 pM. In addition, in experiment [2], the “TDCC Jeko1 EC50” value was determined as 4 pM, the “TDCC MOLP-8 EC50” value came to 0.94 pM and the “TDCC OPM-2 EC50” value turned out to be 3.1 pM. This molecule also yielded a Kd with human BCMA protein [5] of 2860 pM.

B8: BCMA targeting trispecific protein 01F07 (other, not shown: large carriers; small tags and cut ends)
VHH: EVQLVESGGGLVQPGRSLTLSCAASTNIFSTSPMGWYRQAPGKQRELVAAIHGFSTIYADSVKGRFTISRDNAKNSIYLQMNSLRPEDTALYYCNKVPWGDYHPGNVYWGQGTQVTVSS
notes: trispecific; also called 01F07 TriTAC
Regarding B8, the “TDCC EC50 (EJM cells)” value in experiment [4] is 0.702 pM. In experiment [2], the “TDCC Jeko1 EC50” value is 5.3 pM, the “TDCC MOLP-8 EC50” value is 1.5 pM and the “TDCC OPM-2 EC50” value turned out to be 4.4 pM. The molecule also came in with a Kd with human BCMA protein [5] of 4180 pM.

B9: BCMA targeting trispecific protein 02B06 (other, not shown: large carriers; small tags and cut ends)
VHH: EVQLVESGGGLVQPGRSLTLSCAASTNIFSNSPMGWYRQAPGKQRELVAAIHGFSTLYADSVKGRFTISRDNAKNSIYLQMNSLRPEDTALYYCNKVPWGDYHPGNVYWGQGTQVTVSS
notes: trispecific; also called 02B06 TriTAC
As for B9, in experiment [4], the “TDCC EC50 (EJM cells)” value is 1.65 pM. Further, in experiment [2], the “TDCC Jeko1 EC50” value was 11 pM, the “TDCC MOLP-8 EC50” value was 2.8 pM and the “TDCC OPM-2 EC50” value was 9.7 pM. In addition, the Kd in the experiment with human BCMA protein [5] was 6770 pM.

B10: BCMA targeting trispecific protein 02G02 (other)
VHH: EVQLVESGGGLVQPGRSLTLSCAASTNIFSITPMGWYRQAPGKQRELVAAIHGASTLYADSVKGRFTISRDNAKNSIYLQMNSLRPEDTALYYCNKVPWGDYHPGNVYWGQGTQVTVSS
notes: trispecific; also called 02G02 TriTAC; not shown: anti-albumin domain, anti-CD3 domain and the linkers of the trispecific (TriTAC) format
On to B10, for which, in experiment [4], the “TDCC EC50 (EJM cells)” value worked out at 1.08 pM. Moreover, in experiment [2], the “TDCC Jeko1 EC50” value came to 11 pM, the “TDCC MOLP-8 EC50” value came to 2.8 pM and the “TDCC OPM-2 EC50” value came out at 6.6 pM. Also, binding in the experiment with human BCMA protein [5] was put at a Kd of 5260 pM.

B11: BCMA targeting trispecific protein 02F02 (other)
VHH: EVQLVESGGGLVQPGRSLTLSCAASTNIFSKSPMGWYRQAPGKQRELVAAIHGSSTLYADSVKGRFTISRDNAKNSIYLQMNSLRPEDTALYYCNKVPWGDYHPGNVYWGQGTQVTVSS
notes: trispecific; also called 02F02 TriTAC; not shown: The C-terminal 6xHis tag is left out because it follows these missing domains
In the case of B11, the “TDCC EC50 (EJM cells)” value in experiment [4] amounted to 1.36 pM. In experiment [2], the “TDCC Jeko1 EC50” value amounted to 8.2 pM, the “TDCC MOLP-8 EC50” value turned out to be 3.5 pM and the “TDCC OPM-2 EC50” value was found to be 10 pM. In addition, in the experiment with human BCMA protein [5], binding was put at a Kd of 6730 pM.

B12: BCMA targeting trispecific protein 02H11 (other)
VHH: EVQLVESGGGLVQPGRSLTLSCAASTNITSISPMGWYRQAPGKQRELVAAIHGESTLYADSVKGRFTISRDNAKNSIYLQMNSLRPEDTALYYCNKVPWGDYHPRNVYWGQGTQVTVSS
notes: trispecific; not shown: the C-terminal 6xHis tag follows those domains and is left out
Regarding B12, the “TDCC EC50 (EJM cells)” value in experiment [4] was 77.5 pM. This molecule also had a Kd in the experiment with human BCMA protein [5] of 27500 pM.

B13: 02G02-M34G TriTAC (other, not shown: large carriers; small tags and cut ends)
VHH: EVQLVESGGGLVQPGRSLTLSCAASTNIFSITPGGWYRQAPGKQRELVAAIHGASTLYADSVKGRFTISRDNAKNSIYLQMNSLRPEDTALYYCNKVPWGDYHPGNVYWGQGTQVTVSS
notes: trispecific
As for B13, in experiment [2], the “TDCC Jeko1 EC50” value is 12 pM, the “TDCC MOLP-8 EC50” value is 4 pM and the “TDCC OPM-2 EC50” value came to 7.1 pM. Also, binding with human BCMA protein [3] was put at a Kd of 7000 pM.

B14: 01F07-M34Y TriTAC (other)
VHH: EVQLVESGGGLVQPGRSLTLSCAASTNIFSTSPYGWYRQAPGKQRELVAAIHGFSTIYADSVKGRFTISRDNAKNSIYLQMNSLRPEDTALYYCNKVPWGDYHPGNVYWGQGTQVTVSS
notes: trispecific; not shown: anti-albumin domain, anti-CD3 domain and the linkers of the TriTAC; the C-terminal His6 that follows them is left out
Turning to B14, in experiment [2], the “TDCC Jeko1 EC50” value worked out at 5.6 pM, the “TDCC MOLP-8 EC50” value was 1.5 pM and the “TDCC OPM-2 EC50” value amounted to 3.6 pM. Also, the Kd with human BCMA protein [3] came to 3000 pM.

B15: BCMA targeting trispecific protein 02F04 (other, not shown: large carriers; small tags and cut ends)
VHH: EVQLVESGGGLVQPGRSLTLSCAASTNIFSSSPMGWYRQAPGKQRELVAAIHGFSTLYADSVKGRFTISRDNAKNSIYLQMNSLRPEDTALYYCNKVPWGDYHPGNVYWGQGTQVTVSS
notes: trispecific; also called 02F04 TriTAC
With B15, the “TDCC EC50 (EJM cells)” value in experiment [4] was 1.72 pM. Besides, in experiment [2], the “TDCC Jeko1 EC50” value was determined as 10 pM, the “TDCC MOLP-8 EC50” value stood at 2.5 pM and the “TDCC OPM-2 EC50” value stood at 7.3 pM. Moreover, the Kd with human BCMA protein [5] came out at 6750 pM.
